Consider four molecules from paper PMC10374466.

Data set [1] deals with T1, mouse IDO1 (Mus musculus, UniProt P28776 1-407). Description: flow cytometry on protein-coated beads.
Data set [2] concerns the target T1, mouse IDO1. Description: flow cytometry on protein-coated beads. The source holds these as a separate data set.

T1 sequence (P28776 whole entry): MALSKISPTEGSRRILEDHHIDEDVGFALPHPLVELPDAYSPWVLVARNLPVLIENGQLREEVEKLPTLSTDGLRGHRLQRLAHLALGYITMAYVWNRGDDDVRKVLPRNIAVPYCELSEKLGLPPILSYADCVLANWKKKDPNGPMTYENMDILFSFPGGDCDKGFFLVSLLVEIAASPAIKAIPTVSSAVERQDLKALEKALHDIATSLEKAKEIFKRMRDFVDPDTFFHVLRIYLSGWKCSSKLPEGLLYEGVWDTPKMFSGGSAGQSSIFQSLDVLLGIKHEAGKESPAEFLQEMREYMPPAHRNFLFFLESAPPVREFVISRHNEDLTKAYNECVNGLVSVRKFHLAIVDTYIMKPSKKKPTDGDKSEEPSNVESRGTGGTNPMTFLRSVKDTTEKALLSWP

B1: #2 (ssDNA)
DNA: CAGCACCGTCAACTGAATCCGTCACTCGCTCGGGGGTCCGACATTTACCCTGTGAAATGTGATGCGATGGAGATGT
In the case of B1, in the data set with mouse IDO1 [1], the binding result is reported as “binds”.

B2: #3 (ssDNA)
DNA: CAGCACCGTCAACTGAATAGGAAGATACCCGGGGGTACCGTTACCGCTGTGAACGGAGGTGATGCGATGGAGATGT
On to B2, for which, in the data set with mouse IDO1 [1], the binding result is recorded as “binds”.

B3: #1 (ssDNA)
DNA: CAGCACCGTCAACTGAATATCAGGACGGACCTGGGGAGGTCAGTTAGCCCTCTGAACTGTGATGCGATGGAGATGT
As to B3, the binding result in the data set with mouse IDO1 [1] is on record as “binds”.

B4: IDO-APT (#4) (ssDNA)
DNA: CAGCACCGTCAACTGAATGCCAACGGCATATCCGGACAGGCGGGAACCTAGGGCCTTTGTGATGCGATGGAGATGT
In turn, B4 came in with a Kd with mouse IDO1 [2] of 131 ± 9 nM.
